Results: publication PMC12096693 (Microbial Cell Factories, 2025)

B1: CadA (Escherichia coli K-12) (protein)
chain: MNVIAILNHMGVYFKEEPIRELHRALERLNFQIVYPNDRDDLLKLIENNARLCGVIFDWDKYNLELCEEISKMNENLPLYAFANTYSTLDVSLNDLRLQISFFEYALGAAEDIANKIKQTTDEYINTILPPLTKALFKYVREGKYTFCTPGHMGGTAFQKSPVGSLFYDFFGPNTMKSDISISVSELGSLLDHSGPHKEAEQYIARVFNADRSYMVTNGTSTANKIVGMYSAPAGSTILIDRNCHKSLTHLMMMSDVTPIYFRPTRNAYGILGGIPQSEFQHATIAKRVKETPNATWPVHAVITNSTYDGLLYNTDFIKKTLDVKSIHFDSAWVPYTNFSPIYEGKCGMSGGRVEGKVIYETQSTHKLLAAFSQASMIHVKGDVNEETFNEAYMMHTTTSPHYGIVASTETAAAMMKGNAGKRLINGSIERAIKFRKEIKRLRTESDGWFFDVWQPDHIDTTECWPLRSDSTWHGFKNIDNEHMYLDPIKVTLLTPGMEKDGTMSDFGIPASIVAKYLDEHGIVVEKTGPYNLLFLFSIGIDKTKALSLLRALTDFKRAFDLNLRVKNMLPSLYREDPEFYENMRIQELAQNIHKLIVHHNLPDLMYRAFEVLPTMVMTPYAAFQKELHGMTEEVYLDEMVGRINANMILPYPPGVPLVMPGEMITEESRPVLEFLQMLCEIGAHYPGFETDIHGAYRQADGRYTVKVLKEESKK
B2: LdcC (Escherichia coli K-12) (protein)
chain: MNIIAIMGPHGVFYKDEPIKELESALVAQGFQIIWPQNSVDLLKFIEHNPRICGVIFDWDEYSLDLCSDINQLNEYLPLYAFINTHSTMDVSVQDMRMALWFFEYALGQAEDIAIRMRQYTDEYLDNITPPFTKALFTYVKERKYTFCTPGHMGGTAYQKSPVGCLFYDFFGGNTLKADVSISVTELGSLLDHTGPHLEAEEYIARTFGAEQSYIVTNGTSTSNKIVGMYAAPSGSTLLIDRNCHKSLAHLLMMNDVVPVWLKPTRNALGILGGIPRREFTRDSIEEKVAATTQAQWPVHAVITNSTYDGLLYNTDWIKQTLDVPSIHFDSAWVPYTHFHPIYQGKSGMSGERVAGKVIFETQSTHKMLAALSQASLIHIKGEYDEEAFNEAFMMHTTTSPSYPIVASVETAAAMLRGNPGKRLINRSVERALHFRKEVQRLREESDGWFFDIWQPPQVDEAECWPVAPGEQWHGFNDADADHMFLDPVKVTILTPGMDEQGNMSEEGIPAALVAKFLDERGIVVEKTGPYNLLFLFSIGIDKTKAMGLLRGLTEFKRSYDLNLRIKNMLPDLYAEDPDFYRNMRIQDLAQGIHKLIRKHDLPGLMLRAFDTLPEMIMTPHQAWQRQIKGEVETIALEQLVGRVSANMILPYPPGVPLLMPGEMLTKESRTVLDFLLMLCSVGQHYPGFETDIHGAKQDEDGVYRVRVLKMAG

Assays:
CL2 = details: pH 7, 2 mM PLP
purified protein = substrate: NCCCC[C@H](N)C(=O)O; assay: purified protein; details: pH 7, 2 mM PLP

Row | Molecule | Km (CL2) [mM] | Km (purified protein) [mM]
1 | NCCCC[C@H](N)C(=O)O [L-lysine] | 22.2 ± 5.73 | 
2 | B1 |  | 29.23 ± 9.56
3 | B2 |  | 18.46 ± 0.89
